± gives the uncertainty stated by the source.

The chains are these.
B1: Transcriptional regulator ERG, residues 117 to 197; numbered along this chain, P11308 (parent)
chain: NMTTNERRVIVPADPTLWSTDHVRQWLEWAVKEYGLPDVNILLFQNIDGKELCKMTKDDFQRLTPSYNADILLSHLHYLRE

In this data set the parent is B1. Description: abundance fitness (aPCA) (normalised: wild type 0, dead -1); higher = more abundant; growth selection in yeast, the domain comes from the species named. Conditions: Homo sapiens.
With NMTTNERRVIVPADPTLWSTDHVRQWLEWAVKEYGLPDVNILLFQNIDGKELCKMTKDDFQRLTPSYNADIQLSHLHYLRE [L72Q], the abundance fitness was -0.697 ± 0.18.

For NMTTNERRVIVPADPTLWSTDHVRQWLEWAVKEYGLPDVNILLFQNIDGKELCKMTKDDFQRLTPSYNADIRLSHLHYLRE [L72R], the abundance fitness was -0.714 ± 0.077. NMTTNERRVIVPADPTLWSTDHVRQWLEWAVKEYGLPDVNILLFQNIDGKELCKMTKDDFQRLTPSYNADILLFHLHYLRE [S74F]: the abundance fitness is -0.379 ± 0.13. For NMTTNERRVIVPADPTLWSTDHVRQWLEWAVKEYGLPDVNILLFQNIDGKELCKMTKDDFQRLTPSYNADILLTHLHYLRE [S74T], the abundance fitness is 0.078 ± 0.08. On to NMTTNERRVIVPADPTLWSTDHVRQWLEWAVKEYGLPDVNILLFQNIDGKELCKMTKDDFQRLTPSYNADILLIHLHYLRE [S74I], for which the abundance fitness was -0.342 ± 0.17.

Consider NMTTNERRVIVPADPTLWSTDHVRQWLEWAVKEYGLPDVNILLFQNIDGKELCKMTKDDFQRLTPSYNADILLQHLHYLRE [S74Q], for which the abundance fitness was -0.073 ± 0.1.

For NMTTNERRVIVPADPTLWSTDHVRQWLEWAVKEYGLPDVNILLFQNIDGKELCKMTKDDFQRLTPSYNADILLRHLHYLRE [S74R], the abundance fitness was 0.006 ± 0.043.

As for NMTTNERRVIVPADPTLWSTDHVRQWLEWAVKEYGLPDVNILLFQNIDGKELCKMTKDDFQRLTPSYNADILLPHLHYLRE [S74P], the abundance fitness was -0.352 ± 0.12. Consider NMTTNERRVIVPADPTLWSTDHVRQWLEWAVKEYGLPDVNILLFQNIDGKELCKMTKDDFQRLTPSYNADILLHHLHYLRE [S74H], for which the abundance fitness was found to be 0.246 ± 0.14. As to NMTTNERRVIVPADPTLWSTDHVRQWLEWAVKEYGLPDVNILLFQNIDGKELCKMTKDDFQRLTPSYNADILLVHLHYLRE [S74V], the abundance fitness is -0.138 ± 0.066. Next, NMTTNERRVIVPADPTLWSTDHVRQWLEWAVKEYGLPDVNILLFQNIDGKELCKMTKDDFQRLTPSYNADILLYHLHYLRE [S74Y]: -0.018 ± 0.12; NMTTNERRVIVPADPTLWSTDHVRQWLEWAVKEYGLPDVNILLFQNIDGKELCKMTKDDFQRLTPSYNADILLCHLHYLRE [S74C]: -0.115 ± 0.085; NMTTNERRVIVPADPTLWSTDHVRQWLEWAVKEYGLPDVNILLFQNIDGKELCKMTKDDFQRLTPSYNADILLDHLHYLRE [S74D]: -0.064 ± 0.083.

Regarding NMTTNERRVIVPADPTLWSTDHVRQWLEWAVKEYGLPDVNILLFQNIDGKELCKMTKDDFQRLTPSYNADILLWHLHYLRE [S74W], the abundance fitness was -0.603 ± 0.15. As for NMTTNERRVIVPADPTLWSTDHVRQWLEWAVKEYGLPDVNILLFQNIDGKELCKMTKDDFQRLTPSYNADILLNHLHYLRE [S74N], the abundance fitness was found to be 0.032 ± 0.15. NMTTNERRVIVPADPTLWSTDHVRQWLEWAVKEYGLPDVNILLFQNIDGKELCKMTKDDFQRLTPSYNADILLGHLHYLRE [S74G]: the abundance fitness was found to be 0.026 ± 0.039. For the variant NMTTNERRVIVPADPTLWSTDHVRQWLEWAVKEYGLPDVNILLFQNIDGKELCKMTKDDFQRLTPSYNADILLLHLHYLRE [S74L], the abundance fitness is -0.217 ± 0.095. For NMTTNERRVIVPADPTLWSTDHVRQWLEWAVKEYGLPDVNILLFQNIDGKELCKMTKDDFQRLTPSYNADILLMHLHYLRE [S74M], the abundance fitness is -0.124 ± 0.095. On to NMTTNERRVIVPADPTLWSTDHVRQWLEWAVKEYGLPDVNILLFQNIDGKELCKMTKDDFQRLTPSYNADILLSWLHYLRE [H75W], for which the abundance fitness was -1 ± 0.3. In the case of NMTTNERRVIVPADPTLWSTDHVRQWLEWAVKEYGLPDVNILLFQNIDGKELCKMTKDDFQRLTPSYNADILLSYLHYLRE [H75Y], the abundance fitness is -0.113 ± 0.12. The same measure for NMTTNERRVIVPADPTLWSTDHVRQWLEWAVKEYGLPDVNILLFQNIDGKELCKMTKDDFQRLTPSYNADILLSDLHYLRE [H75D]: 0.119 ± 0.095. As for NMTTNERRVIVPADPTLWSTDHVRQWLEWAVKEYGLPDVNILLFQNIDGKELCKMTKDDFQRLTPSYNADILLSALHYLRE [H75A], the abundance fitness was -0.01 ± 0.07. For NMTTNERRVIVPADPTLWSTDHVRQWLEWAVKEYGLPDVNILLFQNIDGKELCKMTKDDFQRLTPSYNADILLSRLHYLRE [H75R], the abundance fitness is 0.121 ± 0.05. On to NMTTNERRVIVPADPTLWSTDHVRQWLEWAVKEYGLPDVNILLFQNIDGKELCKMTKDDFQRLTPSYNADILLSTLHYLRE [H75T], for which the abundance fitness was -0.646 ± 0.23. On to NMTTNERRVIVPADPTLWSTDHVRQWLEWAVKEYGLPDVNILLFQNIDGKELCKMTKDDFQRLTPSYNADILLSLLHYLRE [H75L], for which the abundance fitness was -0.316 ± 0.11. As for NMTTNERRVIVPADPTLWSTDHVRQWLEWAVKEYGLPDVNILLFQNIDGKELCKMTKDDFQRLTPSYNADILLSPLHYLRE [H75P], the abundance fitness is -0.561 ± 0.33.

For the variant NMTTNERRVIVPADPTLWSTDHVRQWLEWAVKEYGLPDVNILLFQNIDGKELCKMTKDDFQRLTPSYNADILLSVLHYLRE [H75V], the abundance fitness is -0.62 ± 0.13. On to NMTTNERRVIVPADPTLWSTDHVRQWLEWAVKEYGLPDVNILLFQNIDGKELCKMTKDDFQRLTPSYNADILLSNLHYLRE [H75N], for which the abundance fitness came out at 0.099 ± 0.13. Regarding NMTTNERRVIVPADPTLWSTDHVRQWLEWAVKEYGLPDVNILLFQNIDGKELCKMTKDDFQRLTPSYNADILLSELHYLRE [H75E], the abundance fitness was -0.163 ± 0.099. On to NMTTNERRVIVPADPTLWSTDHVRQWLEWAVKEYGLPDVNILLFQNIDGKELCKMTKDDFQRLTPSYNADILLSQLHYLRE [H75Q], for which the abundance fitness came out at 0.038 ± 0.11. In the case of NMTTNERRVIVPADPTLWSTDHVRQWLEWAVKEYGLPDVNILLFQNIDGKELCKMTKDDFQRLTPSYNADILLSGLHYLRE [H75G], the abundance fitness was -0.156 ± 0.052. In the case of NMTTNERRVIVPADPTLWSTDHVRQWLEWAVKEYGLPDVNILLFQNIDGKELCKMTKDDFQRLTPSYNADILLSFLHYLRE [H75F], the abundance fitness was -0.511 ± 0.16. In the case of NMTTNERRVIVPADPTLWSTDHVRQWLEWAVKEYGLPDVNILLFQNIDGKELCKMTKDDFQRLTPSYNADILLSILHYLRE [H75I], the abundance fitness is -0.215 ± 0.21. Take NMTTNERRVIVPADPTLWSTDHVRQWLEWAVKEYGLPDVNILLFQNIDGKELCKMTKDDFQRLTPSYNADILLSMLHYLRE [H75M]: the abundance fitness was -1.02 ± 0.34.
